Measured values taken from publication PMC11110392, “A first-in-class inhibitor of HSP110 to potentiate XPO1-targeted therapy in primary mediastinal B-cell lymphoma and classical Hodgkin lymphoma” (Journal of Experimental & Clinical Cancer Research : CR, 2024).

Target: T1, His-tagged HSP110 (recombinant) (UniProt Q92598 1-858, non-covalent RED-Tris-NTA 2nd generation dye on the His tag)
T1 construct: recombinant HSP110, OriGene TP307102; also called recombinant HSP110; TP307102; source: bought: OriGene (TP307102)
T1 sequence (Q92598 whole entry): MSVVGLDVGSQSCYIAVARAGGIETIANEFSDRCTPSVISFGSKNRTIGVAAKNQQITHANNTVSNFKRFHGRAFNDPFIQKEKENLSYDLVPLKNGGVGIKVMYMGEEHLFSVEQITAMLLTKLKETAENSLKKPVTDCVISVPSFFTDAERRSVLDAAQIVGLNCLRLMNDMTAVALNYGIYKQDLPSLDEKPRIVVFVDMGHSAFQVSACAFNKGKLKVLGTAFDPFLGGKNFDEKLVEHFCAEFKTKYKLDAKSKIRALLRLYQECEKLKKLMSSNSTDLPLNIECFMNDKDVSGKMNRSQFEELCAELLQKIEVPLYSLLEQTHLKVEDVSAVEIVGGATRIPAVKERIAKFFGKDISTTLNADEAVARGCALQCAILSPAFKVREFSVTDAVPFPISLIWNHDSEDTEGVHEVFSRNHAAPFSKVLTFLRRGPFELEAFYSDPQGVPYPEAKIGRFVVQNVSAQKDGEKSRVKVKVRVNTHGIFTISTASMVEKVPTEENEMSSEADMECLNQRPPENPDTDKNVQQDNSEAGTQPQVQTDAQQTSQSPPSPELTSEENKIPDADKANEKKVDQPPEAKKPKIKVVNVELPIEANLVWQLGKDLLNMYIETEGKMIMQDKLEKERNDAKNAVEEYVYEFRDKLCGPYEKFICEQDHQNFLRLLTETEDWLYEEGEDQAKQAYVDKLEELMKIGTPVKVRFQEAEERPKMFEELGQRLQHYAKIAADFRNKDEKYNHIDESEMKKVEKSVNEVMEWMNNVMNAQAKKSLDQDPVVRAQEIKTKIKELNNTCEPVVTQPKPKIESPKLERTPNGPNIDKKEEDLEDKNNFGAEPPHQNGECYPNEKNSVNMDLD
Test: MST; Monolith NT.115; His-tagged HSP110 labelled with RED-Tris-NTA 2nd generation, fixed at 50 nM; STAT6 titrated from 2.39 µM to 0.07 nM
Conditions: both partners purified

- Kd: 26.7 ± 12.3 nM
B1: STAT6 (recombinant) (natural protein, UniProt P42226 1-847, looked up)
chain: MSLWGLVSKMPPEKVQRLYVDFPQHLRHLLGDWLESQPWEFLVGSDAFCCNLASALLSDTVQHLQASVGEQGEGSTILQHISTLESIYQRDPLKLVATFRQILQGEKKAVMEQFRHLPMPFHWKQEELKFKTGLRRLQHRVGEIHLLREALQKGAEAGQVSLHSLIETPANGTGPSEALAMLLQETTGELEAAKALVLKRIQIWKRQQQLAGNGAPFEESLAPLQERCESLVDIYSQLQQEVGAAGGELEPKTRASLTGRLDEVLRTLVTSCFLVEKQPPQVLKTQTKFQAGVRFLLGLRFLGAPAKPPLVRADMVTEKQARELSVPQGPGAGAESTGEIINNTVPLENSIPGNCCSALFKNLLLKKIKRCERKGTESVTEEKCAVLFSASFTLGPGKLPIQLQALSLPLVVIVHGNQDNNAKATILWDNAFSEMDRVPFVVAERVPWEKMCETLNLKFMAEVGTNRGLLPEHFLFLAQKIFNDNSLSMEAFQHRSVSWSQFNKEILLGRGFTFWQWFDGVLDLTKRCLRSYWSDRLIIGFISKQYVTSLLLNEPDGTFLLRFSDSEIGGITIAHVIRGQDGSPQIENIQPFSAKDLSIRSLGDRIRDLAQLKNLYPKKPKDEAFRSHYKPEQMGKDGRGYVPATIKMTVERDQPLPTPELQMPTMVPSYDLGMAPDSSMSMQLGPDMVPQVYPPHSHSIPPYQGLSPEESVNVLSAFQEPHLQMPPSLGQMSLPFDQPHPQGLLPCQPQEHAVSSPDPLLCSDVTMVEDSCLSQPVTAFPQGTWIGEDIFPPLLPPTEQDLTKLLLEGQGESGGGSLGAQPLLQPSHYGQSGISMSHMDLRANPSW
notes: recombinant STAT6, Abcam ab125625; also called recombinant STAT6; ab125625; source: bought: Abcam (ab125625)
